Results: patent US20260125649A1, “MEDIUM COMPOSITION AND METHOD FOR CULTURING MESENCHYMAL STEM CELLS” (ACADEMIA SINICA, priority 2018, published 2026)

What was measured:
Format in all cases: cell-based, human
[1] = system: EpICD binding to the Oct4 promoter; assay: ChIP of EpICD binding to the Oct4 promoter; details: EpEX 3 μg/mL, ChIP-qPCR
Protocol: FIG. 12. EpEX increases the binding of EpICD to the promoter of Oct4 by inhibiting let7. (A) MSCs were transfected with let7 inhibitor or mimetics then treated with EpEX (3 μg/mL). Binding of EpICD to the Oct4 promoter was examined by chromatin immunoprecipitation (ChIP). EpICD was pulled down by a specific anti-EpICD antibody. The cross-linked DNA was isolated and then probed by qPCR with specific primers for the Oct4 promoter. (B) MSCs were transfected with let7 inhibitor or mimetics then treated with EpEX (3 μg/mL). Binding of EpICD-HMGA2 was examined by sequential ChIP. EpICD was pulled down by a specific anti-EpICD antibody, followed by pull-down with a HMGA2 antibody. To detect bound Oct4 promoter, the cross-linked DNA was isolated and then amplified by qPCR with specific primers.
We performed chromatin immunoprecipitation (ChIP) with the Pierce™ Magnetic ChIP Kit (Thermo Fisher Scientific), to according the manufacturer's instructions. In brief, the protein-DNA complexes were cross-linked with 1% formaldehyde and quenched by adding glycine to a final concentration of 200 mM. […]
(§1) The immunoprecipitated DNA was recovered by a PCR purification kit (Thermo Fisher Scientific), and the purified DNA was subjected to real time quantitative PCR for further analysis. Immunoprecipitation/input was calculated for each gene and each gene was further normalized to the level of mouse β-actin promoter. […]

[2] = system: HMGA2 binding to the promoters of Oct4 and Sox2; assay: ChIP of HMGA2 binding to promoters of pluripotency genes; details: EpEX treatment, data not shown
Protocol: MSCs were treated with EpEX (3 μg/mL), and the expression of HMGA2 was detected by immunofluorescence staining. […] To detect the binding of HMGA2 to Oct4 promoters, cross-linked DNA was isolated and then amplified with specific primers by qPCR. […] The gene expression of HMGA2 is detected by qPCR. MSCs were treated with let-7 mimetic and then treated with EpEX (3 μg/mL) for 12 h. The protein abundance of HMGA2 was examined by Western blotting.
We performed chromatin immunoprecipitation (ChIP) with the Pierce™ Magnetic ChIP Kit (Thermo Fisher Scientific), to according the manufacturer's instructions. In brief, the protein-DNA complexes were cross-linked with 1% formaldehyde and quenched by adding glycine to a final concentration of 200 mM. The chromatin complexes were sonicated to an average size of 250 bp by a MISONIX Sonicator 3000. For immunoprecipitation, 4 μg of […] (Novus) was incubated with protein G beads (Invitrogen) for 4 h. The immunocomplexes were further incubated with chromatin for another 4 h. […]
as §1

Oct4, Sox2, c-Myc, Lin28 = assay: qPCR of pluripotency factors in MSCs; details: EpEX treatment
Source text: The expression of let-7 was detected by qPCR. MSCs expressing EGFR shRNA, STAT3 shRNA or Lin28b shRNA were stimulated with EpEX. The expression of let-7 was detected by qPCR. […] Expression of pluripotency factors (Oct4, Sox2, c-Myc and Lin28) was examined by qPCR. MSCs were transfected with a let-7 mimetic, and then stimulated with EpEX. Protein levels of pluripotency factors (Oct4, Sox2, c-Myc, and Lin28) were examined by Western blotting.
Total RNA was extracted using TRI reagent (Invitrogen, CA, USA), and 5 μg of total RNA was reverse transcribed using oligo (dT) primer (Fermentas, Glen Burnie, MD, USA) with SuperScript III reverse transcriptase (Invitrogen). Quantitative real time RT-PCR (qPCR) was performed on cDNA using the Light Cycler 480 SYBR Green I Master kit (Roche Applied Science, Indianapolis, IN) and the LightCycler480 System (Roche Applied Science). The gene expression levels of each sample were normalized to the expression levels of glyceraldehyde 3-phosphate dehydrogenase (GAPDH).

[3] = system: Oct4, Sox2, c-Myc and EpCAM; assay: Flow cytometry of stemness markers in MSCs; details: data not shown
Protocol: Cells were dissociated with 0.25% trypsin-EDTA (1 mM) (Invitrogen) for 3 min, washed with fluorescence-activated cell sorting buffer (FACS buffer, PBS containing 1% fetal bovine serum), fixed in 4% PFA, and then permeabilized with 0.1% Triton X-100 in PBS. Subsequently, cells were stained with Oct4, Sox2 or Nanog antibodies (1:100, ab 107156, Abcam, UK), washed and suspended in FACS buffer, and incubated with secondary antibody (1:200, Jackson ImmunoResearch) for 60 min at room temperature. Flow cytometry analysis was performed with a BD FACSCanto II flow cytometer (BD Biosciences, CA, USA).
We used human bone marrow-derived MSCs to study the effects of EpEX and first investigated whether EpEX promotes cell proliferation of MSCs. […] Next, we examined the effect of EpEX on cell cycle progression by flow cytometry with propidium iodide (PI) staining. […] EpCAM has been reported to enhance cell cycle progression through upregulation of the proto-oncogene c-Myc and cyclin A/E (Munz et al., 2004). Additionally, EpCAM is known to upregulate cyclin D1 via its direct interaction partner, FHL2, and downstream events such as phosphorylation of the retinoblastoma protein, Rb (Chaves-Perez et al., 2013). Therefore, we further asked whether EpEX can function to upregulate the expression of cell cycle regulators and pluripotency markers. […]

B1: EpEX: extracellular domain of human EpCAM, 265 amino acids in length (SEQ ID NO: 2) (protein, listed as Homo sapiens)
chain: MAPPQVLAFGLLLAAATATFAAAQEECVCENYKLAVNCFVNNNRQCQCTSVGAQNTVICSKLAAKCLVMKAEMNGSKLGRRAKPEGALQNNDGLYDPDCDESGLFKAKQCNGTSMCWCVNTAGVRRTDKDTEITCSERVRTYWIIIELKHKAREKPYDSKSLRTALQKEITTRYQLDPKFITSILYENNVITIDLVQNSSQKTQNDVDIADVAYYFEKDVKGESLFHSKKMDLTVNGEQLDLDPGQTLIYYVDEKAPEFSMQGLK
- binding of EpICD to the promoter of Oct4 [1]: increases
- HMGA2 binding to the promoters of Oct4 and Sox2 [2]: can induce
- expression of the gene for Oct4 (Oct4, Sox2, c-Myc, Lin28): can induce
- protein levels of the stemness markers Oct4, Sox2, c-Myc and EpCAM [3]: increased
